IntAct's records for PubMed 17909014

How the values were obtained:
limd1_mouse Limd1 = limd1_mouse Limd1 (UniProt Q9QXD8)
ajuba_mouse Ajuba = ajuba_mouse Ajuba (UniProt Q91XC0)

Sequence of limd1_mouse Limd1 (Q9QXD8 whole entry): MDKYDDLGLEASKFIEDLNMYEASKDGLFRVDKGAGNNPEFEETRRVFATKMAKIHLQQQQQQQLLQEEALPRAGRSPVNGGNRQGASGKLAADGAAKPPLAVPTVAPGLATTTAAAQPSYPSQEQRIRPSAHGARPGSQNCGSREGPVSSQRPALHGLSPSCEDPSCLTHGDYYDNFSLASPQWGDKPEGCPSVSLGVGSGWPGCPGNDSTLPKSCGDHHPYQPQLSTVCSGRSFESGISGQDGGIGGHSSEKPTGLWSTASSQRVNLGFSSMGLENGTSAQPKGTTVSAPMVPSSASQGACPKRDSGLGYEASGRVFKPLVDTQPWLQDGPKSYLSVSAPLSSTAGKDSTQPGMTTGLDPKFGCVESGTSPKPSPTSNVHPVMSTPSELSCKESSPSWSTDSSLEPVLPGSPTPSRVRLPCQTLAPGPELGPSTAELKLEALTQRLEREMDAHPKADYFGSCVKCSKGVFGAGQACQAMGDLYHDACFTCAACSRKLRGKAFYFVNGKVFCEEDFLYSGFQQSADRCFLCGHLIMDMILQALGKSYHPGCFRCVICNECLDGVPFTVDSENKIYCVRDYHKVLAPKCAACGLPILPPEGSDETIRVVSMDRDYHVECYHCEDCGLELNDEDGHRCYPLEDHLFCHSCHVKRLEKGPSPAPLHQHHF

| effect of a mutation on the interaction (limd1_mouse Limd1) | effect of a mutation on the interaction (ajuba_mouse Ajuba) | Substance |
| --- | --- | --- |
| disrupting interaction | disrupting interaction | Zinc finger protein Gfi-1 (Homo sapiens), Q99684 F5A |
| disrupting interaction | disrupting interaction | Zinc finger protein Gfi-1 (Homo sapiens), Q99684 F5A;L6A;V7A |
| disrupting interaction | disrupting interaction | Zinc finger protein Gfi-1 (Homo sapiens), Q99684 K10A;K11A |
